From patent publication US9433687B2, “Anti-Notch3 antibodies and antibody-drug conjugates” (Pfizer Inc., priority 2012, dated 2016) come the findings set out here.

Experiment [1] deals with U2OS/hNotch3 (Homo sapiens, UniProt Q9UM47). Description: Flow cytometry (FACS) binding, U2OS/hNotch3. On the set-up: U-2 OS cells stably over-expressing human full length Notch3 protein on cell surface; expressed in transfected cells; host or cells: U-2 OS (human osteosarcoma). The conditions noted are these: 4 μg/mL antibody; positive control cell line. The protocol:
Unconjugated anti-Notch3 antibodies, hu28 and hu75, were examined for cell surface binding activity to Notch3 expressing cell lines by flow cytometry. Fluorescence activated cell sorting (FACS) analysis was conducted according to standard procedures. Cells were rinsed in HBSS with calcium chloride and magnesium chloride (herein termed HBSS++), harvested using trypsin without EDTA and neutralized with medium containing FBS. Cells were incubated on ice for 30 minutes with 4 μg/mL anti-Notch3 antibodies, hu28 and hu75, in HBSS++containing 3% HICS (heat-inactivated calf serum). Cells were washed three times with cold HBSS++, 3% HICS buffer. Cells were incubated in allophycocyanin-conjugated AffiniPure F(ab′)2 fragment goat anti-human IgG, Fc fragment secondary antibody (Jackson ImmunoResearch Laboratories, Inc., West Grove, Pa.) at 10 μg/mL for 30 minutes on ice in the dark. Cells were washed once with cold HBSS++/3% HICS buffer. Cells were resuspended in HBSS-++/3% HICS, 25 mM HEPES, 1 mM MgCl2 and 25 μg/ml DNaseI. 7-AAD (7-Amino-Actinomycin D) was added for exclusion of nonviable cells. Live cells were analyzed on a BD FACSCalibur flow cytometer (BD Biosciences, San Jose, Calif.). Mean fluorescence intensity (MFI) from channel FL-4 was calculated with FlowJo flow cytometry analysis software (Ashland, Oreg.).
(In flow cytometry, cells or beads pass a laser one at a time.)

Experiment [2] has as its target T1, MDA-MB-468/hNotch3 (Homo sapiens, UniProt Q9UM47).
T1 construct: cell lines engineered to over-express full length human Notch3 protein: MDA-MB-468/hNotch3 and U2OS/hNotch3; expressed in transfected cells; host or cells: MDA-MB-468
Description: In vitro cytotoxicity (MTS), MDA-MB-468/hNotch3. It counts as cell-based. The conditions noted are these: MDAMB468/hNotch3; data not shown. The procedure: The effects of anti-Notch3 ADCs were assessed on 1) cell lines endogenously expressing Notch3 protein: HCC2429 (lung cancer), OVCAR3 (ovarian cancer) and MDA-MB-468 (breast cancer), 2) cell lines engineered to over-express full length human Notch3 protein: MDA-MB-468/hNotch3 and U2OS/hNotch3, and 3) a negative control cell line (SW900) using an MTS cellular viability indicator (Promega, Madison, Wis.). These cell lines were cultured with increasing concentrations of anti-Notch3 ADCs comprising rat-human chimeric anti-Notch3 antibodies, ch28 and ch75, and humanized anti-Notch3 antibodies, hu28 and hu75, conjugated to various linker-payload combinations of the present invention. As a specificity control for the anti-Notch3-ADCs, non-targeted control-ADCs (huNeg8.8-ADCs or ch2H6-ADCs) were also tested on the same cell lines. After four days, viability of each culture was assessed. IC50 values were calculated by logistic non-linear regression, model #203 with XL fit v4.2 (IDBS, Guildford, Surry, UK) and presented as ng Ab/mL. The drug antibody ratio (DAR) is also provided.

Sequence of U2OS/hNotch3 (Q9UM47 40-2321): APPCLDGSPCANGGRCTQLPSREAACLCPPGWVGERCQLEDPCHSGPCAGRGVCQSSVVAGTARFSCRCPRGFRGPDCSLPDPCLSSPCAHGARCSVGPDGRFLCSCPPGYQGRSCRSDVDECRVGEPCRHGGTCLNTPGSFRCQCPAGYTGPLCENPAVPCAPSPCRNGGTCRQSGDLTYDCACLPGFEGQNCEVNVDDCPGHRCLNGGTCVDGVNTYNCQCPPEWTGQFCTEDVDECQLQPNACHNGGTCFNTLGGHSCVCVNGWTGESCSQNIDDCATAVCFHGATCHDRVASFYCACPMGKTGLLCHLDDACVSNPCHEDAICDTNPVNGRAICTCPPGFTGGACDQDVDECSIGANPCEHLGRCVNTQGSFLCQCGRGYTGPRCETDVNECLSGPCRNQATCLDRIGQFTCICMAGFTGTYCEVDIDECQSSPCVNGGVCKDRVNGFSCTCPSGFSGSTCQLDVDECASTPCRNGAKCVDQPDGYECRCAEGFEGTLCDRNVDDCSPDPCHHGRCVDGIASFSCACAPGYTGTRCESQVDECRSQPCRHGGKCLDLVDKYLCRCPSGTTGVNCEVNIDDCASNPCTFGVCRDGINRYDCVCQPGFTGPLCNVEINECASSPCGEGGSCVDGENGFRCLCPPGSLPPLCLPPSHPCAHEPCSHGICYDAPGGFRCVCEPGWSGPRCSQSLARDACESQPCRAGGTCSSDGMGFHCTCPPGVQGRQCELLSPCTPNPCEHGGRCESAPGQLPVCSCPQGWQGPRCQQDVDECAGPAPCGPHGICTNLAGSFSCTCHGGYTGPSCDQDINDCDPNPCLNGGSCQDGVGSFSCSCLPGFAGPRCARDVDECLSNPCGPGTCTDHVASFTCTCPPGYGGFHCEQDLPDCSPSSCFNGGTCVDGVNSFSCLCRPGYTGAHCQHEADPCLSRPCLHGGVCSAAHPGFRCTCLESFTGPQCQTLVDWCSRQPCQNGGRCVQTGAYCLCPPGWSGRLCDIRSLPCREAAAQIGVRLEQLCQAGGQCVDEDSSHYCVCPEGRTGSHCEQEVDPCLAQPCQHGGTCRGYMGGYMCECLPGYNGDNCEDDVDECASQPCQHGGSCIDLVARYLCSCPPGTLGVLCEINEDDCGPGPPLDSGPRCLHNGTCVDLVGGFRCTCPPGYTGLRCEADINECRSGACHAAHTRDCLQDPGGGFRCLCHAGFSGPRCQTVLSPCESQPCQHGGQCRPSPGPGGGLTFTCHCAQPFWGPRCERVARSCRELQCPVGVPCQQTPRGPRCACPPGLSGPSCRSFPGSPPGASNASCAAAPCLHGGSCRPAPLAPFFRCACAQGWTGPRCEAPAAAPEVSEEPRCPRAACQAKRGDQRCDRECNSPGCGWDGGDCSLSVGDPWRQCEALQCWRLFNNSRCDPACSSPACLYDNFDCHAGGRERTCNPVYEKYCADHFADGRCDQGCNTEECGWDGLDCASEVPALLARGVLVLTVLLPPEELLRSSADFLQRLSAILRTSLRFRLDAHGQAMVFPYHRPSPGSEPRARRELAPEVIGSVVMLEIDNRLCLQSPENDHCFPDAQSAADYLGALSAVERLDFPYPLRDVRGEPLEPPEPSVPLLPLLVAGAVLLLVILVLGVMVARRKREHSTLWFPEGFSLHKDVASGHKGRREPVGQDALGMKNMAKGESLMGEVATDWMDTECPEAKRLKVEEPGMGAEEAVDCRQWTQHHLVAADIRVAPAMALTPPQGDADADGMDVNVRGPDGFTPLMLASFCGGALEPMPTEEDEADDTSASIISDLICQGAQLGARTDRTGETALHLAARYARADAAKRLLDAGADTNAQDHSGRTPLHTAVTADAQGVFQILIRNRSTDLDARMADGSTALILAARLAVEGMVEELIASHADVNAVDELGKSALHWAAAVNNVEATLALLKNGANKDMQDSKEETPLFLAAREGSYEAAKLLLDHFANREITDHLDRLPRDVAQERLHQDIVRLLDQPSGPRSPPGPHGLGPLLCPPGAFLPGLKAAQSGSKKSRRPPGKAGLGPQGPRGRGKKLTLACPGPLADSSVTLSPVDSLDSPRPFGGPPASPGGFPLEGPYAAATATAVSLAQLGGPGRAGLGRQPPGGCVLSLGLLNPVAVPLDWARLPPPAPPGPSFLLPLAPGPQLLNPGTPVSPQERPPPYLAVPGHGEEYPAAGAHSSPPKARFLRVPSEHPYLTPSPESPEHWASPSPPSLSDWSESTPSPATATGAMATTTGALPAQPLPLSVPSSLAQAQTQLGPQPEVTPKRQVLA
T1 sequence (Q9UM47 40-2321): as above

B1: hu28 VH1.0/VL1.0: humanized r28 variant VH1.0/VL1.0, anti-Notch3 antibody (VH SEQ ID NO: 13, VL SEQ ID NO: 25) (antibody, V domains shown)
VH: EVQLVESGGGLVQPGGSLRLSCAASGFTFRDYGMTWVRQAPGKGLEWVAYISSGSNYIYYAEAVKGRFTISRDNAKNSLYLQMNSLRAEDTAVYYCARRGPFVLDAWGQGTLVTVSS
VL: DIQMTQSPSSLSASVGDRVTITCKASQSINRYLHWYQQKPGKAPKLLIYNANGLQTGVPSRFSGSGSGTDFTLTISSLQPEDFATYYCLQHNTWPDTFGGGTKVEIK
On to B1, for which the MFI in experiment [1] is reported as 256. In experiment [2], the “effect of unconjugated antibody on viability” value is given as “did not affect the viability”.
